Where two headings read alike, the source gives them in different places. Bridges are numbered along the chain shown (N, C = ends). [ ]: non-standard residue; d: D form. 1Nal = N[C@@H](Cc1cccc2ccccc12)C(=O)O; 2Nal = N[C@@H](Cc1ccc2ccccc2c1)C(=O)O; d2Nal = N[C@H](Cc1ccc2ccccc2c1)C(=O)O; Aib = CC(C)(N)C(=O)O; βAla = NCCC(=O)O

Assay in all cases: competition
Test [1] addresses T1, hMC5-R (human, UniProt P33032).
For test [2], the target named is T2, hMC3-R (human, UniProt P41968).
The target in test [3] is T3, hMC1-R (human, UniProt Q01726).
In test [4] the target is T4, hMC4-R (human, UniProt P32245).
In test [5] the target is T2, hMC3-R. The source holds these as a separate data set.
The target in test [6] is T4, hMC4-R. This is another data set of the same source.
The target in test [7] is T1, hMC5-R. This is another data set of the same source.
Test [8] deals with T3, hMC1-R. This is another data set of the same source.

T3 sequence (Q01726 whole entry): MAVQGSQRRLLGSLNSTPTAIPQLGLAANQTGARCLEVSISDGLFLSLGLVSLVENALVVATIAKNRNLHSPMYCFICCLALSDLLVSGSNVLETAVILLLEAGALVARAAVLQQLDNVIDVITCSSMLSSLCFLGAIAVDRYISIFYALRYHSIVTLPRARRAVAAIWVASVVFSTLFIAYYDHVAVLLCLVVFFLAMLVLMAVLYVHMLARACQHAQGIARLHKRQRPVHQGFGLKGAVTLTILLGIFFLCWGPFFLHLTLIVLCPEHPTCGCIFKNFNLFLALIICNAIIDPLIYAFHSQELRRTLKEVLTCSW
T2 sequence (P41968 whole entry): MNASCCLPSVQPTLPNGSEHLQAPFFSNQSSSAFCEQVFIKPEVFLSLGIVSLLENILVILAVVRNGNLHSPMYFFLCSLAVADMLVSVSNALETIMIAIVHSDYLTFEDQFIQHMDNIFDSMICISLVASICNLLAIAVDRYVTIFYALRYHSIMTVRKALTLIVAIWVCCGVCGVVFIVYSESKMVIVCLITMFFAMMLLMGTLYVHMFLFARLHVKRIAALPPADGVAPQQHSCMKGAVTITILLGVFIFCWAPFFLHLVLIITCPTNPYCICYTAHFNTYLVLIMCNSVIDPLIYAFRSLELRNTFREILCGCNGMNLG
T1 sequence (P33032 whole entry): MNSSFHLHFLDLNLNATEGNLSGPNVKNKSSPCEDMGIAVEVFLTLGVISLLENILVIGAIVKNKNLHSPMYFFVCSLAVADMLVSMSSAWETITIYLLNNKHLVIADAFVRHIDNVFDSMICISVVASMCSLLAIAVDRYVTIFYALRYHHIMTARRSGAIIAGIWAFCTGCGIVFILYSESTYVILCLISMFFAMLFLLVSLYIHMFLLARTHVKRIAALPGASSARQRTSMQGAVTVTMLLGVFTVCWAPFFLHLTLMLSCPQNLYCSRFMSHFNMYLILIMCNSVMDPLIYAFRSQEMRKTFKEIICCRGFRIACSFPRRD
T4 sequence (P32245 whole entry): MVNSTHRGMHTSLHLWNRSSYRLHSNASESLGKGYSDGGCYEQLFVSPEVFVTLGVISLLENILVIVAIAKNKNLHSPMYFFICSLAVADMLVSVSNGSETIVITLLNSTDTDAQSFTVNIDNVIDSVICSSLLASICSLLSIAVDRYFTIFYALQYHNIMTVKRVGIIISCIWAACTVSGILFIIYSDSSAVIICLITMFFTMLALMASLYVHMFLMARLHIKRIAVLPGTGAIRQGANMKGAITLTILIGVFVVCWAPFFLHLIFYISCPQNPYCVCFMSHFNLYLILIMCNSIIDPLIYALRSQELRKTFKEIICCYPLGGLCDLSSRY

B1: Table 2A compound 14 (peptide)
chain: Ac-CEH[d2Nal]R[2Nal]ACPPKD-NH2
modifications: disulfide 1-8
SMILES: CC(=O)N[C@H]1CSSC[C@@H](C(=O)N2CCC[C@H]2C(=O)N2CCC[C@H]2C(=O)N[C@@H](CCCCN)C(=O)N[C@@H](CC(=O)O)C(N)=O)NC(=O)[C@H](C)NC(=O)[C@H](Cc2ccc3ccccc3c2)NC(=O)[C@H](CCCNC(=N)N)NC(=O)[C@@H](Cc2ccc3ccccc3c2)NC(=O)[C@H](Cc2c[nH]cn2)NC(=O)[C@H](CCC(=O)O)NC1=O
Broadly, the Ki is a dissociation constant, usually derived from enzyme kinetics or from competition with a known ligand. The low end stands for tighter binding, the high end for weaker binding. For the molecule B1, the Ki is 359 nM in test [1], 9.08 nM in test [2], 87.8 nM in test [3] and 1.2 nM in test [4].

B2: Table 2B compound 2 (peptide)
chain: Ac-CEH[d2Nal]R[2Nal][Aib]CPPKD-NH2
modifications: disulfide 1-8
SMILES: CC(=O)N[C@H]1CSSC[C@@H](C(=O)N2CCC[C@H]2C(=O)N2CCC[C@H]2C(=O)N[C@@H](CCCCN)C(=O)N[C@@H](CC(=O)O)C(N)=O)NC(=O)C(C)(C)NC(=O)[C@H](Cc2ccc3ccccc3c2)NC(=O)[C@H](CCCNC(=N)N)NC(=O)[C@@H](Cc2ccc3ccccc3c2)NC(=O)[C@H](Cc2c[nH]cn2)NC(=O)[C@H](CCC(=O)O)NC1=O
Take B2: the Ki in test [5] came to 306 nM; in test [6], 5.87 nM; in test [7], 979 nM; in test [8], 1820 nM.

B3: Table 2A compound 15 (peptide)
chain: Ac-CEH[d2Nal]R[1Nal]ACPPKD-NH2
modifications: disulfide 1-8
SMILES: CC(=O)N[C@H]1CSSC[C@@H](C(=O)N2CCC[C@H]2C(=O)N2CCC[C@H]2C(=O)N[C@@H](CCCCN)C(=O)N[C@@H](CC(=O)O)C(N)=O)NC(=O)[C@H](C)NC(=O)[C@H](Cc2cccc3ccccc23)NC(=O)[C@H](CCCNC(=N)N)NC(=O)[C@@H](Cc2ccc3ccccc3c2)NC(=O)[C@H](Cc2c[nH]cn2)NC(=O)[C@H](CCC(=O)O)NC1=O
Take B3: the Ki in test [1] was 348 nM; in test [2], 17.8 nM; in test [3] it was 124 nM; in test [4] it was 1.11 nM.

B4: Table 2B compound 1 (peptide)
chain: Ac-CEH[d2Nal]R[2Nal][βAla]CPPKD-NH2
modifications: disulfide 1-8
SMILES: CC(=O)N[C@H]1CSSC[C@@H](C(=O)N2CCC[C@H]2C(=O)N2CCC[C@H]2C(=O)N[C@@H](CCCCN)C(=O)N[C@@H](CC(=O)O)C(N)=O)NC(=O)CCNC(=O)[C@H](Cc2ccc3ccccc3c2)NC(=O)[C@H](CCCNC(=N)N)NC(=O)[C@@H](Cc2ccc3ccccc3c2)NC(=O)[C@H](Cc2c[nH]cn2)NC(=O)[C@H](CCC(=O)O)NC1=O
Regarding B4, the Ki in test [5] is 113 nM; in test [6] it was 10.7 nM; in test [7] it was 239 nM; in test [8], 2060 nM.

For the origin of these results see patent US8349797 (dated 2013).
